Reference: patent US20220089776A1 (OREGON HEALTH AND SCIENCE UNIVERSITY, published 2022)

How the values were obtained:
Assay in all cases: Western blot of platelet-poor plasma; primary antibody murine 5C12
rabbit FXII = biological target: T1, rabbit FXII (rabbit, UniProt G1SIB7 20-617)
T1 construct: Plasma protein
T1 sequence: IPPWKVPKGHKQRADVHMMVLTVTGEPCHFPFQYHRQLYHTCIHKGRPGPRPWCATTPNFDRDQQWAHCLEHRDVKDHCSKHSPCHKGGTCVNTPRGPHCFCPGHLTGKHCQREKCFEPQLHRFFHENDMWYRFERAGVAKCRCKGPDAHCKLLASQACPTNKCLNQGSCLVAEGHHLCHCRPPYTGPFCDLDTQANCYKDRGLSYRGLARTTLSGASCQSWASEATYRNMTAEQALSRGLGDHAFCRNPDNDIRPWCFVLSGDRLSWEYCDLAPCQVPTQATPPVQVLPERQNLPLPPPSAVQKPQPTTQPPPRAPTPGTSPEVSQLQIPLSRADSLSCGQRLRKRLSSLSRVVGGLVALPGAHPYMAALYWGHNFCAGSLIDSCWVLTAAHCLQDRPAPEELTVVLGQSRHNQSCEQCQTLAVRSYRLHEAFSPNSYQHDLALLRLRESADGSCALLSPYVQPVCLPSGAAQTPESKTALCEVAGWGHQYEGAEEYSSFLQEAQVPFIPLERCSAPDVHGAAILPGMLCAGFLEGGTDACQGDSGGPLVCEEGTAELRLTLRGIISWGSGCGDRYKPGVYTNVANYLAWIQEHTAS
Excerpt: (§1) FIG. 3A-3C: Species specificity of 5C12. (FIG. 3A) Western blots of platelet poor plasmas from different species (indicated above each lane) size fractionated by SDS-PAGE […]. Species included in alphabetical order: African green monkey, baboon, beagle, cat, cattle, chicken, cynomolgus monkey, dog, elephant, giant anteater, horse, human, human deficient in FXII, llama, marmoset, pig, rabbit, raccoon, rat, red kangaroo, rhesus macaque and tiger. Human plasma and human deficient in FXII plasma were used in all gels as a positive and negative control, respectively. […] 5C12 also recognizes both the alpha (comprising both the light and heavy chain of FXII) and the beta (comprising only the light chain and a nonapeptide fragment of the heavy chain) form of activated FXII (FXIIa) (FIG. 3C). The primary antibody for all Western blots was murine 5C12, the secondary antibody was goat-anti-mouse polyclonal.

rhesus macaque FXII = biological target: T2, rhesus macaque FXII (rhesus macaque, UniProt F7FY72 20-615)
T2 construct: Plasma protein
T2 sequence: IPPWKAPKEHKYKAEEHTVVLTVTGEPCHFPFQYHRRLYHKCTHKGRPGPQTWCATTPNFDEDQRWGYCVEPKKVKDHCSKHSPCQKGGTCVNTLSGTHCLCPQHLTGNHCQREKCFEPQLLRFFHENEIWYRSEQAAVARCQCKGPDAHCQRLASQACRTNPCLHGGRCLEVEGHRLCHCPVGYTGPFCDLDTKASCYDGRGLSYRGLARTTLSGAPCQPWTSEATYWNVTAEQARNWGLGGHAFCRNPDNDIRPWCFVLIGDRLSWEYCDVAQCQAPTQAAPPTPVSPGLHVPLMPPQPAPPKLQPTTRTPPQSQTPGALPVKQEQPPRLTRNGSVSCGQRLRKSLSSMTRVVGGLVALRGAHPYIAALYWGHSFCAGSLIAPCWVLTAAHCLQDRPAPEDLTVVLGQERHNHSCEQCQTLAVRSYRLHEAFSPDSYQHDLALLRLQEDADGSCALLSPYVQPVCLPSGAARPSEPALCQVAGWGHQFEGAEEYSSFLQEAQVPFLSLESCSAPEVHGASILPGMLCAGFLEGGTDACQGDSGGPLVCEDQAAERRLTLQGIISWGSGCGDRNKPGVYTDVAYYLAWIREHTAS
Excerpt: as §1

cattle FXII = biological target: T3, cattle FXII (cattle, UniProt P98140 20-612)
T3 construct: mature; Plasma protein
T3 sequence (looked up): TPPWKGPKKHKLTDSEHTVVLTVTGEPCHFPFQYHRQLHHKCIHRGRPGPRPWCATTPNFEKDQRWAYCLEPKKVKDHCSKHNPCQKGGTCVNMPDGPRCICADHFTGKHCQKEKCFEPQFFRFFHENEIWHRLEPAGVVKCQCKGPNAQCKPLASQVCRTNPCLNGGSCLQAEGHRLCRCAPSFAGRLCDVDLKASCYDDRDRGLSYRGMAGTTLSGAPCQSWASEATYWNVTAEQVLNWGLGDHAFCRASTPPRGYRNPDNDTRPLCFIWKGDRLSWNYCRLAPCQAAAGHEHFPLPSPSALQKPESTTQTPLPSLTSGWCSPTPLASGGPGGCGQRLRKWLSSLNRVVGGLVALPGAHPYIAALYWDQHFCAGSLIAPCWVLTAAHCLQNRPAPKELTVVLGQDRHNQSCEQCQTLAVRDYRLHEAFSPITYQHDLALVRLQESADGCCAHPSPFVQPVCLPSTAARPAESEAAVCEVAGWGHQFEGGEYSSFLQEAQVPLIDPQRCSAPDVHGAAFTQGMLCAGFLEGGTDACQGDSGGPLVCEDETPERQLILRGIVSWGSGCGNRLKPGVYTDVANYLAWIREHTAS
Excerpt: as §1

pig FXII = biological target: T4, pig FXII (pig, UniProt O97507 20-616)
T4 construct: mature; Plasma protein
T4 sequence (looked up): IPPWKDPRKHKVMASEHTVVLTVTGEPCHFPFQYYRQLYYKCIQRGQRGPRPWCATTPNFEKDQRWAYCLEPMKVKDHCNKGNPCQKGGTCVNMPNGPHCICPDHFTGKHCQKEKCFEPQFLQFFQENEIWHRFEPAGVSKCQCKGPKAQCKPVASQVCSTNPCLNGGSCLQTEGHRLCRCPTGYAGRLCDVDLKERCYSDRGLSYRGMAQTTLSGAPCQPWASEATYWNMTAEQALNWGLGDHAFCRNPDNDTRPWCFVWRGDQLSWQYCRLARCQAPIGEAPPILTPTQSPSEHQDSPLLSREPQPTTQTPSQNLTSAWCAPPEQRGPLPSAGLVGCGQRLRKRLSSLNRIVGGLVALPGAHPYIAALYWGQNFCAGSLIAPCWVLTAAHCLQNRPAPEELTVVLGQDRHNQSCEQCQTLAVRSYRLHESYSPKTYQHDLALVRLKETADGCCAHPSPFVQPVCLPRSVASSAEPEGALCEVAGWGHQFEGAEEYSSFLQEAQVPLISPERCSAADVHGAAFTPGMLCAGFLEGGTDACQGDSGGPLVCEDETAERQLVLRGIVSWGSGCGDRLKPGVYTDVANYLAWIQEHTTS
Excerpt: as §1

Measured: binding result

B1: mouse monoclonal antibody 5C12 (antibody, mouse IgG1, kappa, V domains shown)
VH: DVQLQESGPDLVKPSQSLSLTCTVTGYSITSGYSWHWIRQFPGNNLEWMGYIQYSGNTNSNPSLKSRISITRDTSKNQFFLHLNSVTTEDTATYYCARWGSFDYWGQGTTLTVSS
VL: QIVLTQSPAIMSASPGEKVTMTCSASSSVNYMHWYQQKSGTSPKRWIYDTSKLASGVPARFSGSGSGTSYSLTISSMEAGDAATYYCQQWSGNPPTFGGGTILEIKR
notes: Purified from hybridoma; also called AB053; 5C12 MAb
no binding: all assays above
